The labels stand for the following.
B1: peptide of SEQ ID NO: 24 (peptide)
peptide: Ac-ARVYDLGLRRLRQRRRLRRERVRAKRYDREFLLAFQF[Nle]-NH2
SMILES: CCCC[C@H](NC(=O)[C@H](Cc1ccccc1)NC(=O)[C@H](CCC(N)=O)NC(=O)[C@H](Cc1ccccc1)NC(=O)[C@H](C)NC(=O)[C@H](CC(C)C)NC(=O)[C@H](CC(C)C)NC(=O)[C@H](Cc1ccccc1)NC(=O)[C@H](CCC(=O)O)NC(=O)[C@H](CCCNC(=N)N)NC(=O)[C@H](CC(=O)O)NC(=O)[C@H](Cc1ccc(O)cc1)NC(=O)[C@H](CCCNC(=N)N)NC(=O)[C@H](CCCCN)NC(=O)[C@H](C)NC(=O)[C@H](CCCNC(=N)N)NC(=O)[C@@H](NC(=O)[C@H](CCCNC(=N)N)NC(=O)[C@H](CCC(=O)O)NC(=O)[C@H](CCCNC(=N)N)NC(=O)[C@H](CCCNC(=N)N)NC(=O)[C@H](CC(C)C)NC(=O)[C@H](CCCNC(=N)N)NC(=O)[C@H](CCCNC(=N)N)NC(=O)[C@H](CCCNC(=N)N)NC(=O)[C@H](CCC(N)=O)NC(=O)[C@H](CCCNC(=N)N)NC(=O)[C@H](CC(C)C)NC(=O)[C@H](CCCNC(=N)N)NC(=O)[C@H](CCCNC(=N)N)NC(=O)[C@H](CC(C)C)NC(=O)CNC(=O)[C@H](CC(C)C)NC(=O)[C@H](CC(=O)O)NC(=O)[C@H](Cc1ccc(O)cc1)NC(=O)[C@@H](NC(=O)[C@H](CCCNC(=N)N)NC(=O)[C@H](C)NC(C)=O)C(C)C)C(C)C)C(N)=O

Square brackets hold non-standard residues; d marks the D form. Nle = CCCC[C@H](N)C(=O)O

In this test the target is T1, Human eIF4E (aa 28-217) with a C-terminal His tag (human, UniProt P06730 28-217).
T1 construct: also called HH-eIF4E; eukaryotic initiation factor 4E
T1 sequence (P06730 other isoform, or with tags, fused parts or gaps limits assumed): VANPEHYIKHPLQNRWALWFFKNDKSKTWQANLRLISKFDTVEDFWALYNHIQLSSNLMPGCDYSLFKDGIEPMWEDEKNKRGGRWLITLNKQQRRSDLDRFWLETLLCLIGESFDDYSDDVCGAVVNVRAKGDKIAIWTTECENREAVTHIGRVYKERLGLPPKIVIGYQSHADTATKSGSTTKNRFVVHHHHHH
Kind of test: TR-FRET competition vs biotin-4G2 peptide on HH-eIF4E. (In general: TR-FRET usually uses a lanthanide donor and a delayed reading to cut background.)
Method: Test peptides (1.6 mM stock in DMSO) were diluted 3 fold in series in DMSO and solutions were diluted 4 fold in Assay Buffer (50 mM NaPi, pH 6.5, 50 mM KCl, 1 mM DTT, 0.004% NP40 and 0.5 mg/ml gammaglobulin). […] The samples were incubated at room temperature for 20 minutes.
IC50 values were calculated using Condoseo software (Genedata AG, Basel, Switzerland).
The molecule B1 registered an IC50 of 19 nM.

For Ac-GAAEAAARVYDLGLRRLRQRRYLRRELLRF-NH2 [peptide of SEQ ID NO: 26], the IC50 amounted to 250 nM.

As for Ac-GAAEAAAYVYDLLLRFLRQRRRLRRERVRA-NH2 [peptide of SEQ ID NO: 25], the IC50 was 11000 nM.

What is called IC50 is the concentration needed to halve the response being measured. Low readings indicate higher potency, high ones lower potency.
